Patent US20220042033A1, “COMPOSITION AND METHOD FOR CONFERRING AND/OR ENHANCING TOLERANCE AGAINST HERBICIDES BY USING VARIANTS OF PPO” (FarmHannong Co., Ltd., priority 2017, published 2022)

Tests used:
MxPPO = test: PPO enzyme activity of purified MBP-fused MxPPO wild type and variants; type: biochemical, Myxococcus xanthus; conditions: PPO enzyme activity of purified MxPPO protein, relative to wild type
Experimental: Thus, PPO proteins of wild type and variants were expressed as fused to MBP and were used for experiments.
The following process for purification of PPO protein was performed in a 4° C. cold room. […] The column was washed with 3 column volumes of buffer and the presence of protein in the washing solution was examined. When the protein was no longer detected, the washing procedure was terminated. Then, the MBP-PPO protein was eluted with approximately 2 column volumes of buffer containing 20 mM maltose. The protein concentration of each eluent was determined and the elution was stopped when the protein was no longer detected. Ten microliter of each fraction was investigated for protein quantification and SDS-PAGE analysis. The highly pure fractions of PPO protein variants were used for the enzyme assay.
Since protoporphyrinogen IX, a substrate of PPO protein, was not commercially available, it was chemically synthesized in the laboratory. Overall process was performed in dark under nitrogen stream. […] of protoporphyrin IX was dissolved in 20 ml of 20% (v/v) EtOH, and stirred under dark condition for 30 minutes. The obtained protoporphyrin IX solution was put into a 15 ml screw tube in an amount of 800 μl, and flushed with nitrogen gas for 5 minutes. To this, 1.5 g of sodium amalgam was added and vigorously shaken for 2 minutes. The lid was opened to exhaust hydrogen gas in the tube. Thereafter, the lid was closed and incubated for 3 minutes. The protoporphyrinogen IX solution was filtered using syringe and cellulose membrane filter. To 600 μl of the obtained protoporphyrinogen IX solution, approximately 300 μl of 2M MOPS [3-(N-morpholino) propanesulfonic acid] was added to adjust pH to 8.0. To determine the enzyme activity of PPO protein, a reaction mixture was prepared with the following composition (based on 10 ml): 50 mM Tris-Cl (pH 8.0); 50 mM NaCl; 0.04% (v/v) Tween 20; 40 mM glucose (0.072 g); 5 units glucose oxidase (16.6 mg); and 10 units catalase (1 μl).
Hundred and eighty microliters of a reaction mixture […] were placed in 96 well plates and 20 μl of purified PPO proteins were added. After 50 μl of the mineral oil was layered, the reaction was initiated by adding the substrate, protoporphyrinogen IX solution, to a final concentration of 50 μM. The reaction proceeded at room temperature for 30 min and the fluorescence of protoporphyrin IX was measured using Microplate reader (Sense, Hidex) (excitation: 405 nm; emission: 633 nm). To calculate the PPO enzyme activity, the protoporphyrinogen IX solution was kept open in the air overnight to oxidize the solution. To this, 2.7 N HCl was added, and the absorbance at 408 nm was measured. A standard curve was generated using standard protoporphyrin IX, and PPO activity was measured by calibration of protoporphyrin IX using the standard curve of protoporphyrin IX.
Activities of variants were presented relatively compared to that of wild type.

ApPPO1 = test: Herbicide tolerance test of ApPPO1 wild type and variants in PPO-deficient E. coli BT3(ΔPPO), growth on herbicide-containing LB agar; type: cell-based, Auxenochlorella protothecoides; conditions: relative to ApPPO1 WT, dark
Experimental: Then, the extent of tolerance was evaluated.

Molecule | Activity (%) (MxPPO) | also measured
V164A: MxPPO (SEQ ID NO: 3) variant (protein, Synthetic (Protoporphyrinogen IX oxidase (MxPPO) of Myxococcus xanthus)) MHHMPRTTGMNVAVVGGGISGLAVAHHLRSRGTDAVLLESSARLGGAVGTHALAGYLVEQGPNSFLDREPATRALAAALNLEGRIRAADPAAKRRYVYTRGRLRSVPASPPAFLASDILPLGARLRVAGELFSRRAPEGVDESLAAFGRRHLGHRATQVLLDAAQTGIYAGDVEQLSVAATFPMLVKMEREHRSLILGAIRAQKAQRQAALPAGTAPKLSGALSTFDGGLQVLIDALAASLGDAAHVGARVEGLAREDGGWRLIIEEHGRRAELSVAQVVLAAPAHATAKLLRPLDDALAALVAGIAYAPIAVVHLGFDAGTLPAPDGFGFLVPAEEQRRMLGAIHASTTFPFRAEGGRVLYSCMVGGARQPGLVEQDEDALAALAREELKALAGVTARPSFTRVFRWPLGIPQYNLGHLERVAAIDAALQRLPGLHLIGNAYKGVGLNDCIRNAAQLADALVAGNTSHAP | 75 | –
A170C: MxPPO (SEQ ID NO: 3) variant (protein, Synthetic (Protoporphyrinogen IX oxidase (MxPPO) of Myxococcus xanthus)) MHHMPRTTGMNVAVVGGGISGLAVAHHLRSRGTDAVLLESSARLGGAVGTHALAGYLVEQGPNSFLDREPATRALAAALNLEGRIRAADPAAKRRYVYTRGRLRSVPASPPAFLASDILPLGARLRVAGELFSRRAPEGVDESLAAFGRRHLGHRATQVLLDAVQTGIYCGDVEQLSVAATFPMLVKMEREHRSLILGAIRAQKAQRQAALPAGTAPKLSGALSTFDGGLQVLIDALAASLGDAAHVGARVEGLAREDGGWRLIIEEHGRRAELSVAQVVLAAPAHATAKLLRPLDDALAALVAGIAYAPIAVVHLGFDAGTLPAPDGFGFLVPAEEQRRMLGAIHASTTFPFRAEGGRVLYSCMVGGARQPGLVEQDEDALAALAREELKALAGVTARPSFTRVFRWPLGIPQYNLGHLERVAAIDAALQRLPGLHLIGNAYKGVGLNDCIRNAAQLADALVAGNTSHAP | 86 | –
I168C: MxPPO (SEQ ID NO: 3) variant (protein, Synthetic (Protoporphyrinogen IX oxidase (MxPPO) of Myxococcus xanthus)) MHHMPRTTGMNVAVVGGGISGLAVAHHLRSRGTDAVLLESSARLGGAVGTHALAGYLVEQGPNSFLDREPATRALAAALNLEGRIRAADPAAKRRYVYTRGRLRSVPASPPAFLASDILPLGARLRVAGELFSRRAPEGVDESLAAFGRRHLGHRATQVLLDAVQTGCYAGDVEQLSVAATFPMLVKMEREHRSLILGAIRAQKAQRQAALPAGTAPKLSGALSTFDGGLQVLIDALAASLGDAAHVGARVEGLAREDGGWRLIIEEHGRRAELSVAQVVLAAPAHATAKLLRPLDDALAALVAGIAYAPIAVVHLGFDAGTLPAPDGFGFLVPAEEQRRMLGAIHASTTFPFRAEGGRVLYSCMVGGARQPGLVEQDEDALAALAREELKALAGVTARPSFTRVFRWPLGIPQYNLGHLERVAAIDAALQRLPGLHLIGNAYKGVGLNDCIRNAAQLADALVAGNTSHAP | 47 | –
L332T: MxPPO (SEQ ID NO: 3) variant (protein, Synthetic (Protoporphyrinogen IX oxidase (MxPPO) of Myxococcus xanthus)) MHHMPRTTGMNVAVVGGGISGLAVAHHLRSRGTDAVLLESSARLGGAVGTHALAGYLVEQGPNSFLDREPATRALAAALNLEGRIRAADPAAKRRYVYTRGRLRSVPASPPAFLASDILPLGARLRVAGELFSRRAPEGVDESLAAFGRRHLGHRATQVLLDAVQTGIYAGDVEQLSVAATFPMLVKMEREHRSLILGAIRAQKAQRQAALPAGTAPKLSGALSTFDGGLQVLIDALAASLGDAAHVGARVEGLAREDGGWRLIIEEHGRRAELSVAQVVLAAPAHATAKLLRPLDDALAALVAGIAYAPIAVVHLGFDAGTLPAPDGFGFTVPAEEQRRMLGAIHASTTFPFRAEGGRVLYSCMVGGARQPGLVEQDEDALAALAREELKALAGVTARPSFTRVFRWPLGIPQYNLGHLERVAAIDAALQRLPGLHLIGNAYKGVGLNDCIRNAAQLADALVAGNTSHAP | 87 | –
I345T: MxPPO (SEQ ID NO: 3) variant (protein, Synthetic (Protoporphyrinogen IX oxidase (MxPPO) of Myxococcus xanthus)) MHHMPRTTGMNVAVVGGGISGLAVAHHLRSRGTDAVLLESSARLGGAVGTHALAGYLVEQGPNSFLDREPATRALAAALNLEGRIRAADPAAKRRYVYTRGRLRSVPASPPAFLASDILPLGARLRVAGELFSRRAPEGVDESLAAFGRRHLGHRATQVLLDAVQTGIYAGDVEQLSVAATFPMLVKMEREHRSLILGAIRAQKAQRQAALPAGTAPKLSGALSTFDGGLQVLIDALAASLGDAAHVGARVEGLAREDGGWRLIIEEHGRRAELSVAQVVLAAPAHATAKLLRPLDDALAALVAGIAYAPIAVVHLGFDAGTLPAPDGFGFLVPAEEQRRMLGATHASTTFPFRAEGGRVLYSCMVGGARQPGLVEQDEDALAALAREELKALAGVTARPSFTRVFRWPLGIPQYNLGHLERVAAIDAALQRLPGLHLIGNAYKGVGLNDCIRNAAQLADALVAGNTSHAP | 33 | –
F329V: MxPPO (SEQ ID NO: 3) variant (protein, Synthetic (Protoporphyrinogen IX oxidase (MxPPO) of Myxococcus xanthus)) MHHMPRTTGMNVAVVGGGISGLAVAHHLRSRGTDAVLLESSARLGGAVGTHALAGYLVEQGPNSFLDREPATRALAAALNLEGRIRAADPAAKRRYVYTRGRLRSVPASPPAFLASDILPLGARLRVAGELFSRRAPEGVDESLAAFGRRHLGHRATQVLLDAVQTGIYAGDVEQLSVAATFPMLVKMEREHRSLILGAIRAQKAQRQAALPAGTAPKLSGALSTFDGGLQVLIDALAASLGDAAHVGARVEGLAREDGGWRLIIEEHGRRAELSVAQVVLAAPAHATAKLLRPLDDALAALVAGIAYAPIAVVHLGFDAGTLPAPDGVGFLVPAEEQRRMLGAIHASTTFPFRAEGGRVLYSCMVGGARQPGLVEQDEDALAALAREELKALAGVTARPSFTRVFRWPLGIPQYNLGHLERVAAIDAALQRLPGLHLIGNAYKGVGLNDCIRNAAQLADALVAGNTSHAP | 91 | –
V213C + Y422I: ApPPO1 (SEQ ID NO: 1) variant (protein, Synthetic (Protoporphyrinogen IX oxidase (ApPPO1) of Auxenochlorella protothecoides)) MPFTHLKPLNRLLGSPRARHPHVAPQAVSVTNTSTTRPGGRSSAPGIPGDAEYDVVIVGAGISGLTTAQALAKQYSDAVPRLLVTEARDCVGGNIITRRDGGYQWEEGPNSFQPSDAVLRAAVDAGVADRLVLGDPKAPRYVYWGGRLRATPSGPDVLTFDLLSLWGKLRAGLGAAGFKAPLPEREESVKEFVTRNLGEEVFQRLIEPFCSGCYAGDPAKLSMKAAFGKVYDLEKGGGSIVGGVLALMKARKQKPPEPRPADLPPKPKGQTVGSFDKGLVTLPSAIAEELGDRVVTGWKLESIDRSGDRFQLTYDTPQGRKKVSARSVALTVPAYTAASLLESRFPKLGKALSSIYYPPVASVALSYPETAILPERLGSDGHLAGFGQLHPRTQGVTTLGTIYASSLFPGRVPEGKVLLLSIFGGATNTRVATMPHGEIVSQVDKDLRKMLIRSDAESPHTVNVTVWPRAIPQFNVGHTDLIQEAKDDLASQGWQGLHLGGNYVAGVALGKCMEAGYKQAAELASHVKSLAT | – | Herbicide tolerance, flumioxazin (ApPPO1; up to 100 μM (FIGS. 7-12)): +++++ (more than 10,000 fold higher tolerance); Herbicide tolerance, tiafenacil (ApPPO1; up to 200 μM (FIGS. 7-12)): ++++ (1,000-9,999 fold higher tolerance); Herbicide tolerance, sulfentrazone (ApPPO1; up to 400 μM (FIGS. 7-12)): +++ (100-999 fold higher tolerance)
